Results: patent US20240174744A1 (SCIRHOM, published 2024)

What was measured:
[1] = molecular target: T1, hiR1-FL-WT-T7 (human iRhom1 full length wild type C-terminally tagged with 3 consecutive copies of the T7 … (human, UniProt Q96CC6 1-855)); assay: FACS, MEF-DKO-hiR1-FL-WT-T7 cells
T1 construct: also called human iRhom1 variant expressed by MEF-DKO-hiR1-FL-WT-T7 cells
T1 sequence: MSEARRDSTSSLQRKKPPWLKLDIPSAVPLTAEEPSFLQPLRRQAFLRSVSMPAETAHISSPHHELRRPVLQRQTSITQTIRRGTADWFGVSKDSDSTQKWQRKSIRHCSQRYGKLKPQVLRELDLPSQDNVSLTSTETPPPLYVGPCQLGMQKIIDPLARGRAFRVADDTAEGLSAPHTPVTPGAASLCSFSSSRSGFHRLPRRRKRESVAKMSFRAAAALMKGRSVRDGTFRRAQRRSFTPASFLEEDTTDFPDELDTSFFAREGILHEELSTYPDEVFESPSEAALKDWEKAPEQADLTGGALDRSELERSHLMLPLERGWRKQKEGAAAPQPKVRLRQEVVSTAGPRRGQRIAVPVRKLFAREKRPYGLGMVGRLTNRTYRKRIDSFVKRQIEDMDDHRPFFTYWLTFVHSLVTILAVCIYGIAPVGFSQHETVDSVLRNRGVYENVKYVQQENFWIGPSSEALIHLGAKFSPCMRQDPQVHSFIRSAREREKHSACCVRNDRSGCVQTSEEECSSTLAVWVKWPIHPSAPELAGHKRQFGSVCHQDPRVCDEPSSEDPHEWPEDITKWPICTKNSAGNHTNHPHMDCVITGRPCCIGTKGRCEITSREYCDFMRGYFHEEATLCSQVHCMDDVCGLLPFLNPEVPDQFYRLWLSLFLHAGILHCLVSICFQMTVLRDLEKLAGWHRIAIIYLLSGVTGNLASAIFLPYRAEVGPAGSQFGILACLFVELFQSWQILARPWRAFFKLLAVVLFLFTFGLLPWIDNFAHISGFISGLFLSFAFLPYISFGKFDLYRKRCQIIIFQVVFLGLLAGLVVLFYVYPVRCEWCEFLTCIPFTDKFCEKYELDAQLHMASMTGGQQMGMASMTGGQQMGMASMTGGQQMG

[2] = molecular target: T2, miR2-FL-WT-T7 (mouse iRhom2 full length wild type C-terminally tagged with 3 consecutive copies of the T7 … (mouse, UniProt Q80WQ6 1-827)); assay: FACS, MEF-DKO-miR2-FL-WT-T7 cells
T2 construct: also called mouse iRhom2 variant expressed by MEF-DKO-miR2-FL-WT-T7 cells
T2 sequence: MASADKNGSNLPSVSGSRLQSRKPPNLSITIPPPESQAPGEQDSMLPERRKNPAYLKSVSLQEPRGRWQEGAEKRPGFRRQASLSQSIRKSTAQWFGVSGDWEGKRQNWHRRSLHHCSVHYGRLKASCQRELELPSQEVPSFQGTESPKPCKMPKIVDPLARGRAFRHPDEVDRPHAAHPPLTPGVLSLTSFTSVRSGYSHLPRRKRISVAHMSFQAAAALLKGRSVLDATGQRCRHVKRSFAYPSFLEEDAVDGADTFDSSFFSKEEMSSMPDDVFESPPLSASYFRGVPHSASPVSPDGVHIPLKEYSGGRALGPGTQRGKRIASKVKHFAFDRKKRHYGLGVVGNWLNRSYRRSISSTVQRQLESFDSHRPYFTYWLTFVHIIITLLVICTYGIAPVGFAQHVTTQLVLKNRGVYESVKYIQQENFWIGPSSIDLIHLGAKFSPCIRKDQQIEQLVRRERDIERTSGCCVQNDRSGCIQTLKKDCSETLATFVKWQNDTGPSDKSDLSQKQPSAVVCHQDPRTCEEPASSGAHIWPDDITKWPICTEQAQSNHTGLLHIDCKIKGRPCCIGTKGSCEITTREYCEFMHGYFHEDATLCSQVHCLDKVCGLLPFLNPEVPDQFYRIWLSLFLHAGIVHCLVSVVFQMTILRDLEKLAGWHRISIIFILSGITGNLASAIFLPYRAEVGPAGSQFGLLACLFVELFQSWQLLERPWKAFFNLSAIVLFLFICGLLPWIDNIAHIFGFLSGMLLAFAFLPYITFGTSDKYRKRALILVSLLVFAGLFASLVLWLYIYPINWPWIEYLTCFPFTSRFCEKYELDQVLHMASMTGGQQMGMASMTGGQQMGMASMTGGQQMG
Description: In brief, immortalized MEF-DKO-EV control cells, MEF-DKO-hiR2-FL-WT-T7 cells and MEF-DKO-miR2-FL-WT-T7 cells were harvested with 10 mM EDTA in PBS, washed and resuspended in FACS buffer (PBS, 3% FBS, 0.05% sodium azide), and seeded in Nunc U-bottom 96-well plates (Thermo Fisher Scientific, USA) at approximately 3×10⁵ cells per well. To pellet cells and remove supernatants, the plates were centrifuged at 1,500 rpm and 4° C. for 3 minutes. For primary staining, cells were resuspended in 100 μl per well of either FACS buffer alone (controls), mouse monoclonal anti-T7 IgG (Merck Millipore, USA) at 3 μg/ml FACS buffer or the purified antibodies 3, 5, 16, 22, 34, 42, 43, 44, 48, and 50 of the present disclosure also at 3 μg/ml FACS buffer and incubated on ice for 1 hour. Afterwards, plates were centrifuged at 1,500 rpm and 4° C. for 3 minutes and washed twice with 200 μl per well of FACS buffer. For secondary staining, cells were spun down and resuspended in 100 μl per well of PE-conjugated goat anti-mouse IgG F(ab′)2 detection fragment (Dianova, Germany) diluted 1:100 in FACS buffer. Protected from light, the cell suspensions were incubated on ice for 1 hour. […] Finally, cells were resuspended in 150 μl per well of FACS buffer and analyzed using a BD Accuri™ C6 Plus flow cytometer (Becton Dickinson, Germany).

B1: antibody 48 (antibody, V domains shown)
VH: QVQLQQSGTELVRPGTSVKVSCKASGYAFTNYLIEWVKQRPGQGLEWIGVINPGSGFTKYNEKFKGKATLTADKSSSTVYMHLSSLTSEDSAVYFCARGLYRAMDYWGQGTSVTVSS
VL: DIQMTQSPASQSASLGESVTITCLASQTIATWLAWYQQKPGKSPQLLIYGATTLADGVPSRFSGGGSGTKFSFKISSLQAEDFVSYYCQQLYSTPYTFGGGTKLEIK
notes: Mouse IgG, kappa light chain; also called clone #48; purified antibody 48
- binding result [1]: no binding (tested: 3 µg/ml)
- binding result [2]: no binding (tested: 3 µg/ml)
